According to patent publication US20250114463A1, “LIVER-TARGETED DRUG AND USE THEREOF” (HANMI PHARM. CO., LTD., priority 2021, published 2025):
Bridges are numbered along the chain shown (N, C = ends). Where no end group is shown, it is not given here. [ ]: non-standard residue; d: D form. Aib = CC(C)(N)C(=O)O

B1: triple agonist of SEQ ID NO: 1 (peptide)
peptide: HXQGTFTSDVSSYLDGQAAKEFIAWLVKGC
HELM: PEPTIDE1{H.[Aib].Q.G.T.F.T.S.D.V.S.S.Y.L.D.G.Q.A.A.K.E.F.I.A.W.L.V.K.G.C.[am]}$$$$V2.0; N-terminus assumed
SMILES: CC[C@H](C)[C@H](NC(=O)[C@H](Cc1ccccc1)NC(=O)[C@H](CCC(=O)O)NC(=O)[C@H](CCCCN)NC(=O)[C@H](C)NC(=O)[C@H](C)NC(=O)[C@H](CCC(N)=O)NC(=O)CNC(=O)[C@H](CC(=O)O)NC(=O)[C@H](CC(C)C)NC(=O)[C@H](Cc1ccc(O)cc1)NC(=O)[C@H](CO)NC(=O)[C@H](CO)NC(=O)[C@@H](NC(=O)[C@H](CC(=O)O)NC(=O)[C@H](CO)NC(=O)[C@@H](NC(=O)[C@H](Cc1ccccc1)NC(=O)[C@@H](NC(=O)CNC(=O)[C@H](CCC(N)=O)NC(=O)C(C)(C)NC(=O)[C@@H](N)Cc1c[nH]cn1)[C@@H](C)O)[C@@H](C)O)C(C)C)C(=O)N[C@@H](C)C(=O)N[C@@H](Cc1c[nH]c2ccccc12)C(=O)N[C@@H](CC(C)C)C(=O)N[C@H](C(=O)N[C@@H](CCCCN)C(=O)NCC(=O)N[C@@H](CS)C(N)=O)C(C)C
B2: triple agonist of SEQ ID NO: 4 (peptide)
peptide: HXQGTFTSDVSSYLLGQQQKEFIAWLVKGC
HELM: PEPTIDE1{H.[Aib].Q.G.T.F.T.S.D.V.S.S.Y.L.L.G.Q.Q.Q.K.E.F.I.A.W.L.V.K.G.C.[am]}$$$$V2.0; N-terminus assumed
SMILES: CC[C@H](C)[C@H](NC(=O)[C@H](Cc1ccccc1)NC(=O)[C@H](CCC(=O)O)NC(=O)[C@H](CCCCN)NC(=O)[C@H](CCC(N)=O)NC(=O)[C@H](CCC(N)=O)NC(=O)[C@H](CCC(N)=O)NC(=O)CNC(=O)[C@H](CC(C)C)NC(=O)[C@H](CC(C)C)NC(=O)[C@H](Cc1ccc(O)cc1)NC(=O)[C@H](CO)NC(=O)[C@H](CO)NC(=O)[C@@H](NC(=O)[C@H](CC(=O)O)NC(=O)[C@H](CO)NC(=O)[C@@H](NC(=O)[C@H](Cc1ccccc1)NC(=O)[C@@H](NC(=O)CNC(=O)[C@H](CCC(N)=O)NC(=O)C(C)(C)NC(=O)[C@@H](N)Cc1c[nH]cn1)[C@@H](C)O)[C@@H](C)O)C(C)C)C(=O)N[C@@H](C)C(=O)N[C@@H](Cc1c[nH]c2ccccc12)C(=O)N[C@@H](CC(C)C)C(=O)N[C@H](C(=O)N[C@@H](CCCCN)C(=O)NCC(=O)N[C@@H](CS)C(N)=O)C(C)C
B3: triple agonist of SEQ ID NO: 38 (peptide)
peptide: XXQGTFTSDKSSYLDERAAQDFVQWLLDGGPSSGAPPPSS
HELM: PEPTIDE1{[O=C(Cc1c[nH]cn1)[*:2]].[Aib].Q.G.T.F.T.S.D.K.S.S.Y.L.D.E.R.A.A.Q.D.F.V.Q.W.L.L.D.G.G.P.S.S.G.A.P.P.P.S.S.[am]}$$$$V2.0
SMILES: CC(C)C[C@H](NC(=O)[C@H](CC(C)C)NC(=O)[C@H](Cc1c[nH]c2ccccc12)NC(=O)[C@H](CCC(N)=O)NC(=O)[C@@H](NC(=O)[C@H](Cc1ccccc1)NC(=O)[C@H](CC(=O)O)NC(=O)[C@H](CCC(N)=O)NC(=O)[C@H](C)NC(=O)[C@H](C)NC(=O)[C@H](CCCNC(=N)N)NC(=O)[C@H](CCC(=O)O)NC(=O)[C@H](CC(=O)O)NC(=O)[C@H](CC(C)C)NC(=O)[C@H](Cc1ccc(O)cc1)NC(=O)[C@H](CO)NC(=O)[C@H](CO)NC(=O)[C@H](CCCCN)NC(=O)[C@H](CC(=O)O)NC(=O)[C@H](CO)NC(=O)[C@@H](NC(=O)[C@H](Cc1ccccc1)NC(=O)[C@@H](NC(=O)CNC(=O)[C@H](CCC(N)=O)NC(=O)C(C)(C)NC(=O)Cc1c[nH]cn1)[C@@H](C)O)[C@@H](C)O)C(C)C)C(=O)N[C@@H](CC(=O)O)C(=O)NCC(=O)NCC(=O)N1CCC[C@H]1C(=O)N[C@@H](CO)C(=O)N[C@@H](CO)C(=O)NCC(=O)N[C@@H](C)C(=O)N1CCC[C@H]1C(=O)N1CCC[C@H]1C(=O)N1CCC[C@H]1C(=O)N[C@@H](CO)C(=O)N[C@@H](CO)C(N)=O
B4: triple agonist of SEQ ID NO: 39 (peptide)
peptide: HXQGTFTSDYSKYLDGQHAQCFVAWLLAGGGPSSGAPPPS
HELM: PEPTIDE1{H.[Aib].Q.G.T.F.T.S.D.Y.S.K.Y.L.D.G.Q.H.A.Q.C.F.V.A.W.L.L.A.G.G.G.P.S.S.G.A.P.P.P.S.[am]}$$$$V2.0; N-terminus assumed
SMILES: CC(C)C[C@H](NC(=O)[C@H](CC(C)C)NC(=O)[C@H](Cc1c[nH]c2ccccc12)NC(=O)[C@H](C)NC(=O)[C@@H](NC(=O)[C@H](Cc1ccccc1)NC(=O)[C@H](CS)NC(=O)[C@H](CCC(N)=O)NC(=O)[C@H](C)NC(=O)[C@H](Cc1c[nH]cn1)NC(=O)[C@H](CCC(N)=O)NC(=O)CNC(=O)[C@H](CC(=O)O)NC(=O)[C@H](CC(C)C)NC(=O)[C@H](Cc1ccc(O)cc1)NC(=O)[C@H](CCCCN)NC(=O)[C@H](CO)NC(=O)[C@H](Cc1ccc(O)cc1)NC(=O)[C@H](CC(=O)O)NC(=O)[C@H](CO)NC(=O)[C@@H](NC(=O)[C@H](Cc1ccccc1)NC(=O)[C@@H](NC(=O)CNC(=O)[C@H](CCC(N)=O)NC(=O)C(C)(C)NC(=O)[C@@H](N)Cc1c[nH]cn1)[C@@H](C)O)[C@@H](C)O)C(C)C)C(=O)N[C@@H](C)C(=O)NCC(=O)NCC(=O)NCC(=O)N1CCC[C@H]1C(=O)N[C@@H](CO)C(=O)N[C@@H](CO)C(=O)NCC(=O)N[C@@H](C)C(=O)N1CCC[C@H]1C(=O)N1CCC[C@H]1C(=O)N1CCC[C@H]1C(=O)N[C@@H](CO)C(N)=O

Columns and labels:
Assay in all cases: cell-based or functional assay
[1] = molecular target: human GLP-1 receptor (human, UniProt P43220 24-463)
[2] = molecular target: human GCG receptor (human, UniProt P47871 26-477)
[3] = molecular target: T1, human GIP receptor (human, UniProt P48546 22-466)
T1 sequence (looked up): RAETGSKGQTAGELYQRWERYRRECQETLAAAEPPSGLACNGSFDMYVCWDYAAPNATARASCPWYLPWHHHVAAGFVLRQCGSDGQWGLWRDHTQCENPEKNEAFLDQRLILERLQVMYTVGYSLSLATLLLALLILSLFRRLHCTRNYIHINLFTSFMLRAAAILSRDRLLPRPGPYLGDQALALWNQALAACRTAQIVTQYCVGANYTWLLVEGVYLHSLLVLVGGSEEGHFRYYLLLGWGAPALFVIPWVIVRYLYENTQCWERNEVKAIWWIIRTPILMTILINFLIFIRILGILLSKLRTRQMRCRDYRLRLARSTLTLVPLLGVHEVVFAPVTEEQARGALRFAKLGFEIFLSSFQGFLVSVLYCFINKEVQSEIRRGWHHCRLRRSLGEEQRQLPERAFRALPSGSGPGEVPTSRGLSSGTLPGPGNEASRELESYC

Sequence of human GCG receptor (P47871 26-477): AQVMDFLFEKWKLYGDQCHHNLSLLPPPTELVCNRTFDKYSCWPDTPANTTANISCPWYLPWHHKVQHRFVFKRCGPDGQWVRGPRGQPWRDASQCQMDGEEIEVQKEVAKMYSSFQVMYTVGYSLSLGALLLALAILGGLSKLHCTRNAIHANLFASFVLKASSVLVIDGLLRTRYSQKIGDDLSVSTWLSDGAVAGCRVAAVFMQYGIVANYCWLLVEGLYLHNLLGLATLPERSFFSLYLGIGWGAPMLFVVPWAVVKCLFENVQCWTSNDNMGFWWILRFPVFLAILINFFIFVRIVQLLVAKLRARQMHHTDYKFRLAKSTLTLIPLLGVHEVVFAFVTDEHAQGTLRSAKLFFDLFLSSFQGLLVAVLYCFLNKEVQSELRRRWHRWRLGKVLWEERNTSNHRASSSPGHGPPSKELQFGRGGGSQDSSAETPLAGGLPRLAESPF

Row | Binder | in vitro Activity Compared to Native Peptide (%), vs GLP-1 [1] [%] | in vitro Activity Compared to Native Peptide (%), vs Glucagon [2] [%] | in vitro Activity Compared to Native Peptide (%), vs GIP [3] [%]
1 | H[Aib]QGTFTSDYSKYLDECRQKEFVQWLLNGGPSSGAPPPSG (bridge 16-20; not fully specified (C-terminus)) [triple agonist of SEQ ID NO: 37] | 236 | 6.21 | 2.2
2 | H[Aib]QGTFTSDYSIAMDEIHQKDFVNWLLNTKC (bridge 16-20; not fully specified (C-terminus)) [triple agonist of SEQ ID NO: 35] | 7.5 | < 0.1 | 1.3
3 | H[Aib]QGTFTSDYSKYLCEKRQKEFVQWLLNGGPSSGAPPPSG (bridge 16-20; not fully specified (C-terminus)) [triple agonist of SEQ ID NO: 36] | 37.4 | 0.39 | 0.2
4 | H[Aib]QGTFTSDYSKYLDEKRQKEFVNWLLAQKC (bridge 16-20; not fully specified (C-terminus)) [triple agonist of SEQ ID NO: 34] | 19.1 | 0.92 | 0.6
5 | B1 | 3.2 | < 0.1 | < 0.1
6 | B2 | 8.5 | < 0.1 | < 0.1
7 | B3 | 2.3 | – | –
8 | B4 | 13.9 | 0.53 | < 0.1
